Experiments:
[1] = target: SNAP-tagged wild-type human PTH1R (human) (UniProt Q03431); experiment: AlphaScreen or HTRF; crude membrane fractions (0.2–1 µg per well) of HEK293T cells with SNAP-Lumi4-Tb-labelled PTH1R, without mini-Gs; labeled M-PTH(1–14) tracer with unlabeled M-PTH(1–14); 4 h on ice
[2] = target: SNAP-tagged wild-type human PTH1R (human) (UniProt Q03431); experiment: AlphaScreen or HTRF; binding of 40 nM M-PTH(1–14) to membrane fractions supplemented with increasing concentrations of mini-Gs; data relative to PTH1R without mini-Gs; EC50 of mini-Gs read through ligand occupancy, apparent

For “Human [Ac5c^1, Aib^3, Q^10, Har^11, A^12, W^14]PTH(1–14) (peptide)”, the fold increase in affinity, membrane fractions against whole cells [1] was 5 fold.
In the case of “M-PTH(1–14) labeled at K^13 with HiLyte dye 647 (peptide)”, the fold increase of fractional binding with increasing mini-Gs [2] is reported as < 2 fold.
For Mini-Gs 393, the EC50 [2] was 1390 nM.
